Holding throughout (experiment): SPR; KD relative to WT C2;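 also: biacore SPR at 37 °C, anti-C2 mAbs captured on an anti-human IgG chip, alanine or serine C2 surface mutants tested, KD from 1:1 fit compared with wild-type C2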
For orientation: SPR reads the build-up and loss of mass on a sensor chip optically.

One test has as its target T1, human C2 N268A (human, UniProt P06681 21-752).
T1 sequence: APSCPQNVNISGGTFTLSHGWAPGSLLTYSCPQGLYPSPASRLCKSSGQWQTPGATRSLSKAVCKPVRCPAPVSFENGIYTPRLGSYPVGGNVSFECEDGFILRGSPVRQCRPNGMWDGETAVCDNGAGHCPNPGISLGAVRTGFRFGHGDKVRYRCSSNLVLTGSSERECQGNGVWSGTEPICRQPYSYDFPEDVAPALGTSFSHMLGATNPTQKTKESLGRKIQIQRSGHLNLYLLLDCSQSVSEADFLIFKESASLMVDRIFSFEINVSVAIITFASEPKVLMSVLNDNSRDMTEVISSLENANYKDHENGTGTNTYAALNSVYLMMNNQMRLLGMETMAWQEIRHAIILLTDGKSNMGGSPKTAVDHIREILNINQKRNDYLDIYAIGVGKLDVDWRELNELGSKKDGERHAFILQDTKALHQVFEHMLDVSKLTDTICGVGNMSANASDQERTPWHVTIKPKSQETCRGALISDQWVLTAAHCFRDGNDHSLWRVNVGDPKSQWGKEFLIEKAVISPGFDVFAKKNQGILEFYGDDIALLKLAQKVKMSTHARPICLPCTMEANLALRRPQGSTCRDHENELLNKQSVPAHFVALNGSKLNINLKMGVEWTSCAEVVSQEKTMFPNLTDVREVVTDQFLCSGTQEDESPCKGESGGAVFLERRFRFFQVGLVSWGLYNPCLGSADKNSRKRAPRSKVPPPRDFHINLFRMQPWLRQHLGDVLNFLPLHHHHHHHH

Another test concerns the target T2, human C2 L279A (human, UniProt P06681 21-752).
T2 sequence: T1 sequence with A248N, L259A

The target in a further test is T3, human C2 L453A (human, UniProt P06681 21-752).
T3 sequence: T1 sequence with A248N, L433A

A further test concerns the target T4, human C2 N467A (human, UniProt P06681 21-752).
T4 sequence: T1 sequence with A248N, N447A

Residue numbers refer to the chain shown, from its start.

B1: RF16-214 (antibody, V domains shown)
VH: EVQLLESGGGLVQPGGSLRLSCAASGFTFSWYQMMWVRQAPGKGLEWVSRIYPSGGGTAYADSVKGRFTISRDNSKNTLYLQMNSLRAEDTAVYYCARDAGYGDNWGQGTLVTVSS
VL: QSALTQPPSVSVSPGQTASITCSGDKLGEKYASWYQQKAGQSPVMVIYQDRKRPSGIPERFSGSNSGNTATLTISGTQAMDEADYYCQAWDTRAVVFGGGTKLTVLG
Regarding B1, the Fold diff with human C2 N268A came out at 2 fold; with human C2 L279A it was 8 fold; with human C2 L453A it was 45 fold; with human C2 N467A, 2 fold.

The values are drawn from patent US20220332804A1 (CSL INNOVATION, published 2022).
